Measured values published in patent publication US20040170619, “Gene regulation” (published 2004).

B1: TNFR1-4-2 target site (dsDNA)
DNA 1: GTCGGATTGGTGGGTTGGGGGCACAAGGCA
DNA 2: TGCCTTGTGCCCCCAACCCACCAATCCGAC
B2: EPO B-A target site (dsDNA)
DNA 1: TCTGGGGTGGGGGCTGGG
DNA 2: CCCAGCCCCCACCCCAGA

What was measured:
[1] = target: TNFR1-4-2 six-zinc-finger DNA-binding domain (synthetic construct); assay: ELONA; high affinity and specificity; 50 uM ZnCl2, PBS pH 7.0, 10 nM site, salmon sperm competitor DNA, room temperature; conditions: may carry C-terminal NLS-KOX1-c-myc in the ELISA construct; label: biotin
Sequence of TNFR1-4-2 six-zinc-finger DNA-binding domain (synthetic construct) (chain, as listed by the source): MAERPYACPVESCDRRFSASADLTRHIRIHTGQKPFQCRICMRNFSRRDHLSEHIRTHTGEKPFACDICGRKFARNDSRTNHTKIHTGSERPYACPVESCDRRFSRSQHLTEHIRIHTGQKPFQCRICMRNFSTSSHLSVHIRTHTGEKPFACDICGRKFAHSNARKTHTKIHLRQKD
Description: (§1) DNA binding reactions contain the appropriate zinc finger peptide, biotinylated binding site (10 nM) and 5 μg competitor DNA (sonicated salmon sperm DNA), in a total volume of 50 μl, which contained: 1×PBS (pH 7.0), 1.25×10⁻³ U high affinity anti-HA-Peroxidase antibody (Boehringer Mannheim), 50 μM ZnCl₂, 0.01 mg/ml BSA, and 0.5% Tween 20. Incubations are performed at room temperature for 40 minutes. Black streptavidin-coated wells are blocked with 4% marvel for 1 hour. Binding reactions are added to the streptavidin-coated wells and incubated for a further 40 minutes at room temperature. Wells are washed 5 times in 100 μl wash buffer (1×PBS (pH 7.0), 50 µM ZnCl₂, 0.01 mg/ml BSA, and 0.5% Tween 20), and finally 50 μl QuantaBlu peroxidase substrate solution (Pierce) is added to detect bound HA-tagged zinc finger peptide. ELISA signals are read in a SPECTRAmax GeminiXS spectrophotometer (Molecular Devices) and analysed using SOFTmax Pro 3.1.2 (Molecular Devices).

[2] = target: EPOb-a-VP64 six-zinc-finger activator (synthetic construct); assay: ELONA; binds tightly and specifically; 50 uM ZnCl2, PBS pH 7.0, salmon sperm competitor DNA; values only in figure; conditions: tags: SV40 NLS, VP64, c-myc 9E10, C-terminal HA for ELISA; label: biotin
Description: as §1

Binder	binding result [1]	binding result [2]
B1	binds	
B2		binds
